Data on 2 proteins can be found in PMC3543496 (FEBS letters, 2012).

Numbering of substitutions follows the chain as printed. Names may count otherwise. Like-named read-outs stand apart in the source and are kept apart here.

As a reminder, the stoichiometry N is a count of units in the complex or per binding partner.

Data set [1] deals with the molecule itself. Briefly: SEC-MALS. On the technique in general: Size exclusion chromatography separates by hydrodynamic size, large species first.
Data set [2] concerns the molecule itself. Nature of the data set: SEC-MALS. The source holds these as a separate data set.

B1: WT clathrin hub (bovine clathrin heavy chain aa1074-1675) (domain or fragment, UniProt P49951 1074-1675, looked up)
chain: KFDVNTSAVQVLIEHIGNLDRAYEFAERCNEPAVWSQLAKAQLQKGMVKEAIDSYIKADDPSSYMEVVQAANTSGNWEELVKYLQMARKKARESYVETELIFALAKTNRLAELEEFINGPNNAHIQQVGDRCYDEKMYDAAKLLYNNVSNFGRLASTLVHLGEYQAAVDGARKANSTRTWKEVCFACVDGKEFRLAQMCGLHIVVHADELEELINYYQDRGYFEELITMLEAALGLERAHMGMFTELAILYSKFKPQKMREHLELFWSRVNIPKVLRAAEQAHLWAELVFLYDKYEEYDNAIITMMNHPTDAWKEGQFKDIITKVANVELYYRAIQFYLEFKPLLLNDLLMVLSPRLDHTRAVNYFSKVKQLPLVKPYLRSVQNHNNKSVNESLNNLFITEEDYQALRTSIDAYDNFDNISLAQRLEKHELIEFRRIAAYLFKGNNRWKQSVELCKKDSLYKDAMQYASESKDTELAEELLQWFLQEEKRECFGACLFTCYDLLRPDVVLETAWRHNIMDFAMPYFIQVMKEYLTKVDKLDASESLRKEEEQATETQPIVYGQPQLMLTAGPSVAVPPQAPFGYGYTAPAYGQPQPGFGYSM
B1: the “stoichiometry N” value in “SEC-MALS [1]” turned out to be 3.

B2: C1573A clathrin hub (bovine clathrin heavy chain aa1074-1675, C1573A) (domain or fragment, UniProt P49951 1074-1675, looked up)
chain: B1 chain with C500A
Turning to B2, the “stoichiometry N” value is about 2 in the data set “SEC-MALS [1]” and about 3 in the data set “SEC-MALS [2]”.
